Assay results taken from US20210324099A1 (Chugai, published 2021).
Positions count from the first letter of the chain named. Blank lines part the entries; values can stand above or below the binder they belong to.

Legend:
[1] = target: T1, hCD137.1-F-G1d (human); assay: ELISA; 500 uM kynurenine, Ab 10 ug/mL
T1 construct: Portion of the human CD137 extracellular region linked to an antibody constant region
Method: (§1) Whether the obtained antibodies bind to antigens having a partial sequence of CD137 was assessed by ELISA. […] After the unbound antigens were removed from the plates by washing each well of the plates with the Wash Buffer, the wells were blocked with 50 μL of Blocking Buffer (BlockAce-containing TBS) for one hour or more. To wells from which the Blocking Buffer was removed, each well was supplemented with 10 μL of the purified antibodies prepared at 10 μg/mL in TBS with a final concentration of 500 μM L-kynurenine or TBS with a final concentration of 500 μM kynurenine, and it was left at rest for one hour. AP-conjugated anti-human Kappa antibodies (BIOSOURCE) diluted in TBS with a final concentration of 500 μM kynurenine were added to each well after washing with the Wash Buffer containing a final concentration of 500 μM kynurenine (TBS with 0.1% Tween20). After one hour of incubation, the BluePhos phosphate substrate (KPL) was added after washing with Wash Buffer containing 500 μM kynurenine. Color development of the solution in each well was measured by absorbance at 620 nm after the color development reaction of the solution in each well was stopped by adding the BluePhos Stop Solution. The ratio of absorbance by setting the value of the well with an antibody concentration of 0 μg/mL to 1 is shown.

[2] = target: T2, hCD137.1.2-F.G1d (human); assay: ELISA; 500 uM kynurenine, Ab 10 ug/mL
T2 construct: Portion of the human CD137 extracellular region linked to an antibody constant region
T2 sequence (chain, as listed by the source limits assumed): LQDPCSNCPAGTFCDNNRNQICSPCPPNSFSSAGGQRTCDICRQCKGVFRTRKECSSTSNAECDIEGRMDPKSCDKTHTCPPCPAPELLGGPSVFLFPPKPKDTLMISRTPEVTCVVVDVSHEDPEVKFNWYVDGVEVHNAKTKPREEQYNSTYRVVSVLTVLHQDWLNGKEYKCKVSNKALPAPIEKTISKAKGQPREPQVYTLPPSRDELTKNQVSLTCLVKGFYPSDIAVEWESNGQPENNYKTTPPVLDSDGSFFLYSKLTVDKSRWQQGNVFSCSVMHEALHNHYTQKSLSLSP
Method: as §1

[3] = target: T3, hCD137.2.3-F.G1d (human); assay: ELISA; 500 uM kynurenine, Ab 10 ug/mL
T3 construct: Portion of the human CD137 extracellular region linked to an antibody constant region
T3 sequence (chain, as listed by the source limits assumed): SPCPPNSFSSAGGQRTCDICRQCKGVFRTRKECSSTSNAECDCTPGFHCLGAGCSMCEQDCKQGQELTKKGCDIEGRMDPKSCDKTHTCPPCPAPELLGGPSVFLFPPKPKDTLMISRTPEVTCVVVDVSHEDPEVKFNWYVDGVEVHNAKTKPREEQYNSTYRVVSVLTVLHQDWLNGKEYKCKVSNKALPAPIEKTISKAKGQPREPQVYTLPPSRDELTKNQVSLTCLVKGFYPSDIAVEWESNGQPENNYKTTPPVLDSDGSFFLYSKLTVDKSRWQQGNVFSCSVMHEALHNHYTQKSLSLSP
Method: as §1

[4] = target: T4, hCD137.3.4-F.G1d (human); assay: ELISA; 500 uM kynurenine, Ab 10 ug/mL
T4 construct: Portion of the human CD137 extracellular region linked to an antibody constant region
Method: as §1

[5] = target: T5, hFcgRIa (human, UniProt P12314 16-292); assay: SPR 25C
T5 construct: extracellular domain; also called human FcγRIa; FcγRI
T5 sequence (P12314 16-292): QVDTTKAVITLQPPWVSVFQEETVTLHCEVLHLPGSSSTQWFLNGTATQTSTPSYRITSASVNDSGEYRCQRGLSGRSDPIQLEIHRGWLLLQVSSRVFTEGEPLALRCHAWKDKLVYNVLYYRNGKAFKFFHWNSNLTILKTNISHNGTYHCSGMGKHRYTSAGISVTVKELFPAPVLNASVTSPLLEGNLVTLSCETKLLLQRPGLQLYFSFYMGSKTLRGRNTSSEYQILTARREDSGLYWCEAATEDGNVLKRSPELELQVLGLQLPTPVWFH
Method: (§2) Biacore T200 (GE Healthcare) was used to evaluate the binding activity to the respective human Fcγ receptor (hereafter referred to as FcγR). Measurement was performed at 25° C. using 50 mM phosphate, 150 mM NaCl, 0.05 w/v %-P20, pH 7.4 as buffer. About 1000 RU of antibody was captured using a sensor chip immobilized with CaptureSelect™ Human Fab-lambda Kinetics Biotin Conjugate (Thermo Fisher Scientific) as a molecule for ligand capturing. Human FcγR was diluted to 8 nM for FcγRIa and 1000 nM for other FcγR in the measurement buffer, and it was interacted to the captured antibody. The binding activity of each antibody to FcγR was assessed by calculating the binding amount of FcγR (RU) per unit amount of antibody using Biacore T200 Evaluation Software 2.0.

[6] = target: T6, hFcgRIIaH (human, UniProt P12318 34-217); assay: SPR 25C
T6 construct: extracellular domain; also called human FcγRIIa type H (H131)
T6 sequence (looked up): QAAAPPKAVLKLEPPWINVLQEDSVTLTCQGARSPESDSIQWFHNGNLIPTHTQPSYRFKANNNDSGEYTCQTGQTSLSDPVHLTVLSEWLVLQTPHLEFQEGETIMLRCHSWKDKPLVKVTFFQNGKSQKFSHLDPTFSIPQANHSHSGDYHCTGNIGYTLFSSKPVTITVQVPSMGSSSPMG
Method: as §2

[7] = target: T7, hFcgRIIaR (human, UniProt P12318 34-217); assay: SPR 25C
T7 construct: extracellular domain; also called human FcγRIIa type R (R131)
T7 sequence (looked up): T6 sequence (looked up) with H134R
Method: as §2

[8] = target: T8, hFcgRIIb (human, UniProt P31994 43-217); assay: SPR 25C
T8 construct: extracellular domain; also called human FcγRIIb
T8 sequence (looked up): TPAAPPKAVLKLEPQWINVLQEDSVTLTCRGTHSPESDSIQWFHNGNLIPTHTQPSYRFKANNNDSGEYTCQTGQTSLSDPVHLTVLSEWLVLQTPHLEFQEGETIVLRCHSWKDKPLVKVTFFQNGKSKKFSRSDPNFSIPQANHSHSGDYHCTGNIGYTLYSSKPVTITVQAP
Method: as §2

[9] = target: T9, hFcgRIIIaF (human, UniProt P08637 17-208); assay: SPR 25C
T9 construct: extracellular domain; also called human FcγRIIIa allotype F158
T9 sequence (P08637 17-208): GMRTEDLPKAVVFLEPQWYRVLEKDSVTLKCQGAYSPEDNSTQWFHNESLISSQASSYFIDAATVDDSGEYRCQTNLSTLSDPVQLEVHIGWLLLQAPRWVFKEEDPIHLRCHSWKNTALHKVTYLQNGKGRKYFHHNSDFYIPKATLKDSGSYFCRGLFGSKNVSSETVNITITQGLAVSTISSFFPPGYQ
Method: as §2

[10] = target: T10, hFcgRIIIaV (human, UniProt P08637 17-208); assay: SPR 25C
T10 construct: extracellular domain; also called human FcγRIIIa allotype V158
T10 sequence (P08637 17-208 F176V): as the sequence (P08637 17-208) above, with F160V counted along it
Method: as §2

[11] = target: human FcRn (human, UniProt P55899 24-290; P61769 21-119, limits assumed); assay: SPR 25C pH 6.0, steady state;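 further: antibody captured on chip via anti-human Fab-lambda ligand, human FcRn injected as analyte in 50 mM phosphate buffer with 150 mM NaCl and P20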
[12] = target: T5, hFcgRIa; assay: SPR 25C; relative to A375-G1T3/B167-Lamlib;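 further: SPR with antibody captured on an anti-human Fab-lambda chip, human FcγR analyte at 8 nM for FcγRIa or 1000 nM for the others, pH 7.4, FcγR RU per captured antibody unit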
[13] = target: T6, hFcgRIIaH; assay: SPR 25C; relative to A375-G1T3/B167-Lamlib;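 further: SPR with antibody captured on an anti-human Fab-lambda chip, human FcγR analyte at 8 nM for FcγRIa or 1000 nM for the others, pH 7.4, FcγR RU per captured antibody unit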
[14] = target: T7, hFcgRIIaR; assay: SPR 25C; relative to A375-G1T3/B167-Lamlib;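 further: SPR with antibody captured on an anti-human Fab-lambda chip, human FcγR analyte at 8 nM for FcγRIa or 1000 nM for the others, pH 7.4, FcγR RU per captured antibody unit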
[15] = target: T8, hFcgRIIb; assay: SPR 25C; relative to A375-G1T3/B167-Lamlib;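 further: SPR with antibody captured on an anti-human Fab-lambda chip, human FcγR analyte at 8 nM for FcγRIa or 1000 nM for the others, pH 7.4, FcγR RU per captured antibody unit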
[16] = target: T9, hFcgRIIIaF; assay: SPR 25C; relative to A375-G1T3/B167-Lamlib
[17] = target: T10, hFcgRIIIaV; assay: SPR 25C; relative to A375-G1T3/B167-Lamlib
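Wherever binding per 1RU of antibody is given: biacore SPR with antibody captured on an anti-human Fab lambda chip, human FcγR injected at 1000 nM (FcγRIa at 8 nM) in pH 7.4 phosphate buffer.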

T1 sequence (chain, as listed by the source limits assumed): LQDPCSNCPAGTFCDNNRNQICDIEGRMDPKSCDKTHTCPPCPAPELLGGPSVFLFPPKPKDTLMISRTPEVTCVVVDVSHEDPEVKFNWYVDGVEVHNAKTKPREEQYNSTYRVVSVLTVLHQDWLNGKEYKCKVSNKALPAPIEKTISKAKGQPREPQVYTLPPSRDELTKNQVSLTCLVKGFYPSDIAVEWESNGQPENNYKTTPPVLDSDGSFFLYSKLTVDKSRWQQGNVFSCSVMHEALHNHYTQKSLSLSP

absorbance ratio [1]: 1 | absorbance ratio [2]: 1.2 | absorbance ratio [3]: 1.1
B1: dBBK026-P253 (antibody, human IgG1, kappa, V domains shown)
VH: QVQLVQSGAEVKKPGSSVKVSCKASGGEFSNYFISWVRQAPGQGLEWMGMVHPIEGWAVYAQKFQGRVTITADESTSTAYMELSSLRSEDTAVYYCARDRPVFCCPRGAFDIWGQGTLVTVSS
VL: DIVMTQSPLSLPVTPGEPASISCRSSQSLVSPGDNTFLSWYLQKPGQSPQLLIYEIERRFYGVPDRFSGSGSGTDFTLKISRVEAEDVGVYYCMQASTFPRTFGQGTKVEIKR

absorbance ratio [1]: 1.2 | absorbance ratio [2]: 1.4 | absorbance ratio [3]: 1.2
B2: dBBK060-P253 (antibody, human IgG1, kappa, V domains shown)
VH: QVQLVQSGAEVKKPGSSVKVSCKASGGDFSNYVISWVRQAPGQGLEWMGFINPIYGAAGYAQKFQGRVTITADESTSTAYMELSSLRSEDTAVYYCARDEPVASLPHGAFDIWGQGTLVTVSS
VL: B1 VL with S31D, G33W, D34G, E57S, R58N, S97K, T98D, Q105P

absorbance ratio [1]: 1.2 | absorbance ratio [2]: 1.2
B3: dBBK051-P253 (antibody, human IgG1, kappa, V domains shown)
VH: QVQLVQSGAEVKKPGSSVKVSCKASGGGFSSYGISWVRQAPGQGLEWMGALFPISSQASYAQKFQGRVTITADESTSTAYMELSSLRSEDTAVYYCARDRPVDYVPHGAFDIWGQGTLVTVSS
VL: B1 VL

absorbance ratio [1]: 1.8 | absorbance ratio [4]: 1.2
B4: dBBK070-P253 (antibody, human IgG1, kappa, V domains shown)
VH: QVQLVQSGAEVKKPGSSVKVSCKASGGWFSHYSISWVRQAPGQGLEWMGVVWPIRSFATYAQKFQGRVTITADESTSTAYMELSSLRSEDTAVYYCARDNPVTSWPHGAFDIWGQGTLVTVSS
VL: B1 VL with S31R, G33F, D34G, E57S, R58T, S97H, T98Q

absorbance ratio [1]: 1.3 | absorbance ratio [2]: 1.2
B5: dBBK101-P253 (antibody, human IgG1, kappa, V domains shown)
VH: QVQLVQSGAEVKKPGSSVKVSCKASGGAFSYYLISWVRQAPGQGLEWMGFVDPIRGGAFYAQKFQGRVTITADESTSTAYMELSSLRSEDTAVYYCARDRPVNAAPRGAFDIWGQGTLVTVSS
VL: B1 VL with S31G, P32D, G33R, D34G, F37Y, E57G, R58S, R59I, S97A, T98E

binding per 1RU of antibody [5]: 0.0089 RU | binding per 1RU of antibody [6]: 0.0332 RU | binding per 1RU of antibody [7]: 0.0319 RU | binding per 1RU of antibody [8]: 0.0291 RU | binding per 1RU of antibody [9]: 0.0003 RU | binding per 1RU of antibody [10]: 0.0028 RU | Kd [11]: 1050 nM | relative binding amount [12]: 0.11 | relative binding amount [13]: 0.59 | relative binding amount [14]: 0.69 | relative binding amount [15]: 2.66 | relative binding amount [16]: 0.01 | relative binding amount [17]: 0.04
B6: A375-SCF059aPh/B167-Lamlib (antibody, human IgG1, lambda)
heavy: EVQLVESGGGLVKPGGSLRLSCAASGFTFSTFTMNWVRQAPGKGLEWVSSISSKSTYIEYADSFKVRFTISRDNAKNSLYLQMNSLRAEDTAVYYCARYGAKNFLNWVFDYWGQGTLVTVSSASTKGPSVFPLAPSSKSTSGGTAALGCLVKDYFPEPVTVSWNSGALTSGVHTFPAVLQSSGLYSLSSVVTVPSSSLGTQTYICNVNHKPSNTKVDKRVEPKSCDKTHTCPPCPAPELWNGPSVFLFPPKPKDTLMISRTPEVTCVVVDVSDEDPEVKFNWYVDGVEVHNAKTKPREEQYNSTYRVVSVLTVLHRDWLNGKEYKCKVSNKALPKPIEKTISKAKGQPREPQVYTLPPSREEMTKNQVSLTCLVKGFYPSDIAVEWESNGQPENNYKTTPPVLDSDGSFFLYSKLTVKKSRWQQGNVFSCSVMHEALHNHYTQKSLSLSP
light: QSALTQPPSASGSPGQTVTISCTGTRYDVGYYEYVSWYQQHPGKAPKLMIYETSKRLSGVPDRFSGSKSGNTASLTVSGLQAEDEADYYCSSYRYEHQVSFGGGTKLTVLGQPKAAPSVTLFPPSSEELQANKATLVCLISDFYPGAVTVAWKADSSPVKAGVETTTPSKQSNNKYAASSYLSLTPEQWKSHRSYSCQVTHEGSTVEKTVAPTECS
notes: copies: 2 + 2

binding per 1RU of antibody [5]: 0.0045 RU | binding per 1RU of antibody [6]: 0.0042 RU | binding per 1RU of antibody [7]: 0.0067 RU | binding per 1RU of antibody [8]: 0.0805 RU | binding per 1RU of antibody [9]: 0 RU | binding per 1RU of antibody [10]: 0.0003 RU | Kd [11]: 1770 nM | relative binding amount [12]: 0.05 | relative binding amount [13]: 0.07 | relative binding amount [14]: 0.14 | relative binding amount [15]: 7.34 | relative binding amount [16]: 0 | relative binding amount [17]: 0
B7: A375-TT14/B167-Lamlib (antibody, human IgG1, lambda)
heavy: EVQLVESGGGLVKPGGSLRLSCAASGFTFSTFTMNWVRQAPGKGLEWVSSISSKSTYIEYADSFKVRFTISRDNAKNSLYLQMNSLRAEDTAVYYCARYGAKNFLNWVFDYWGQGTLVTVSSASTKGPSVFPLAPSSKSTSGGTAALGCLVKDYFPEPVTVSWNSGALTSGVHTFPAVLQSSGLYSLSSVVTVPSSSLGTQTYICNVNHKPSNTKVDKKVEPKSCDKTHTCPPCPAPEYLGGDSVFLFPPKPKDVLMISRTPEVTCVVIDVSHEDPEVKFNWYVDGVEVHNAKTKPREEQYNSTYRVVSVLPVLHQDWLNGKEYKCKVSNKALPKPIEKTISKAKGQPREPQVYTLPPSREEMTKNQVSLTCLVKGFYPSDIAVEWESNGQPENNYKTTPPVLDSDGSFFLYSKLTVDKSRWQQGNVFSCSVMHEALHNHYTQKSLSLSP
light: B6 light
notes: copies: 2 + 2

binding per 1RU of antibody [5]: 0.0034 RU | binding per 1RU of antibody [6]: 0.0126 RU | binding per 1RU of antibody [7]: 0.0359 RU | binding per 1RU of antibody [8]: 0.109 RU | binding per 1RU of antibody [9]: 0.0001 RU | binding per 1RU of antibody [10]: -0.0002 RU | Kd [11]: 1510 nM | relative binding amount [12]: 0.04 | relative binding amount [13]: 0.22 | relative binding amount [14]: 0.77 | relative binding amount [15]: 9.94 | relative binding amount [16]: 0 | relative binding amount [17]: 0
B8: A375-TT16/B167-Lamlib (antibody, human IgG1, lambda)
heavy: B7 heavy with G242D, I269V
light: B6 light
notes: copies: 2 + 2

binding per 1RU of antibody [5]: 0.0021 RU | binding per 1RU of antibody [6]: 0.0463 RU | binding per 1RU of antibody [7]: 0.0459 RU | binding per 1RU of antibody [8]: 0.0472 RU | binding per 1RU of antibody [9]: 0.0011 RU | binding per 1RU of antibody [10]: 0.0008 RU | Kd [11]: 1010 nM | relative binding amount [12]: 0.03 | relative binding amount [13]: 0.82 | relative binding amount [14]: 0.99 | relative binding amount [15]: 4.31 | relative binding amount [16]: 0.05 | relative binding amount [17]: 0.01
B9: A375-SCF060a/B167-Lamlib (antibody, human IgG1, lambda)
heavy: B6 heavy with Q300L, K331T, K418D
light: B6 light
notes: copies: 2 + 2
